From PMC6703867 (Science Advances, 2019)

Target: T1, MBP-AtWRKY20 fusion protein (Arabidopsis thaliana, UniProt Q93WV0 1-557)
T1 sequence (looked up): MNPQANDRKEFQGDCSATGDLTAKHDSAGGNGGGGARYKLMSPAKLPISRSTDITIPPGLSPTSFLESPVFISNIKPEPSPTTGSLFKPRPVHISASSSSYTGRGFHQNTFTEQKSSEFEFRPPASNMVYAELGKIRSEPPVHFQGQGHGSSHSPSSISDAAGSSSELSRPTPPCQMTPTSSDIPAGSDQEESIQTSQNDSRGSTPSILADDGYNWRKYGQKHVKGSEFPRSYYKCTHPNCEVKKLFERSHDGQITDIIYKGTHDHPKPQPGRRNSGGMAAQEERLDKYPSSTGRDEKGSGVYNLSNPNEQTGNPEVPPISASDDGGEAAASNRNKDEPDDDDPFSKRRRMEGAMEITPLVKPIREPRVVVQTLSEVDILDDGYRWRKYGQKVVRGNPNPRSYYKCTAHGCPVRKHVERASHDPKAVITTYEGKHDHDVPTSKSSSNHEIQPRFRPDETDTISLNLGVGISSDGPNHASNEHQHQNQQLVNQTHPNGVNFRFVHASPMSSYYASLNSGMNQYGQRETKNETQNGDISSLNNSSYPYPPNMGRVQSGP
Assay: pull-down

binding result: binds
B1: GST-AtORA59 (natural protein)
chain: not shown
